Results published in patent publication US7390643B2, “Geranyl diphosphate synthase molecules, and nucleic acid molecules encoding same” (Washington State University Research Foundation, priority 2002, dated 2008).

Substrate: C=C(C)CCO[P@@](=O)(O)OP(=O)(O)O
Assay: Turnover rate of heterotetrameric Mentha GPP synthase (comparison)
Format: biochemical
Details: other: assuming two functional active sites

B1: Mentha GPP synthase, heterotetrameric (dimer of heterodimers) (Mentha x piperita) (protein)
chain: MSALVNPVAKWPQTIGVKDVHGGRRRRSRSTLFQSHPLRTEMPFSLYFSSPLKAPATFSVSAVYTKEGSEIRDKDPAPSTSPAFDFDGYMLRKAKSVNKALEAAVQMKEPLKIHESMRYSLLAGGKRVRPMLCIAACELVGGDESTAMPAACAVEMIHTMSLMHDDLPCMDNDDLRRGKPTNHMAFGESVAVLAGDALLSFAFEHVAAATKGAPPERIVRVLGELAVSIGSEGLVAGQVVDVCSEGMAEVGLDHLEFIHHHKTAALLQGSVVLGAILGGGKEEEVAKLRKFANCIGLLFQVVDDILDVTKSSKELGKTAGKDLVADKTTYPKLIGVEKSKEFADRLNREAQEQLLHFHPHRAAPLIALANYIAYRDN
notes: probably E. coli, C-terminal His8 tag, transit peptide deleted
kcat: 2.4 s⁻¹
